Data taken from patent publication US8535928B2, “Protease and use thereof” (Osaka University, priority 2008, dated 2013).

B1: Thermococcus kodakaraensis KOD1 protease Tk-SP (mature subtilisin-like serine protease, SEQ ID NO: 1 or SEQ ID NO: 3) (Thermococcus kodakarensis KOD1) (protein)
chain: VETEGLDESAAQVMATNMWNLGYDGSGITIGIIDTGIDASHPDLQGKVIGWVDFVNGKTTPYDDNGHGTHVASIAAGTGAASNGKYKGMAPGAKLVGIKVLNGQGSGSISDIINGVDWAVQNKDKYGIKVINLSLGSSQSSDGTDSLSQAVNNAWDAGLVVVVAAGNSGPNKYTVGSPAAASKVITVGAVDKYDVITDFSSRGPTADNRLKPEVVAPGNWIIAARASGTSMGQPINDYYTAAPGTSMATPHVAGIAALLLQAHPSWTPDKVKTALIETADIVKPDEIADIAYGAGRVNAYKAAYYDNYAKLTFTGYVSNKGSQSHQFTISGAGFVTATLYWDNSGSDLDLYLYDPNGNQVDYSYTAYYGFEKVGYYNPTAGTWTIKVVSYSGSANYQVDVVSDGSLGQPSGGGSEPSPSPSPEPTV
notes: C-terminus at 562 or 563
B2: Thermococcus kodakaraensis KOD1 Tk-subtilisin (Tk-sub) (Thermococcus kodakarensis KOD1) (protein)
chain: GKPSWLGGGSTQPAQTIPWGIERVKAPSVWSITDGSVSVIQVAVLDTGVDYDHPDLAANIAWCVSTLRGKVSTKLRDCADQNGHGTHVIGTIAALNNDIGVVGVAPGVQIYSVRVLDARGSGSYSDIAIGIEQAILGPDGVADKDGDGIIAGDPDDDAAEVISMSLGGPADDSYLYDMIIQAYNAGIVIVAASGNEGAPSPSYPAAYPEVIAVGAIDSNDNIASFSNRQPEVSAPGVDILSTYPDDSYETLMGTSMATPHVSGVVALIQAAYYQKYGKILPVGTFDDISKNTVRGILHITADDLGPTGWDADYGYGVVRAALAVQAALG

Assays:
[1] = substrate: C[C@H](NC(=O)CCC(=O)O)C(=O)N[C@@H](C)C(=O)N1CCC[C@H]1C(=O)N[C@@H](Cc1ccccc1)C(=O)Nc1ccc([N+](=O)[O-])cc1; test: Rate parameters of Tk-SP with Suc-AAPF-pNA (Michaelis-Menten); type: biochemical, Thermococcus kodakaraensis KOD1; details: substrate 0.01 to 2 mM
Description: (§1) For examination of the pH dependence and the buffer dependence of the Tk-SP, enzyme reactions were performed using acetate buffers (pH 4.5, 5.0, 5.2, 5.4 and 5.6), MES buffers (pH 5.5, 6.0, 6.5 and 7.0), HEPES buffers (pH 7.0 and 7.5), Tris-HCl buffers (pH 7.0, 7.5, 8.0, 8.5 and 9.0), glycine-NaOH buffers (pH 8.5, 9.0, 9.5 and 10.0) and CAPS-NaOH buffers (pH 9.0, 9.5, 10.0, 10.5, 11.0 and 11.5) in the following procedure. 100 μl of a reaction mixture containing a 50 mM buffer and 2 mM Suc-AAPF-pNA (synthetic substrate) was incubated at 20° C. for 5 minutes. To this, 0.1 μg of the Tk-SP was added and the reaction mixture was further incubated at 20° C. for 10 minutes. The reaction was stopped by addition of 10 μl of acetic acid, and then the amount of p-nitroaniline produced from the synthetic substrate Suc-AAPF-pNA was determined by use of the absorption coefficient of 8900 M^−1 cm^−1 from the absorbance at 410 nm in an ultraviolet spectrophotometer (Beckman model DU640). The amount of the enzyme which catalyzes the production of 1 μmol of p-nitroaniline per minute was defined as “one unit.” The enzyme activity per milligram of the protein was defined as specific activity.
(§2) By use of, as a substrate, Suc-AAPF-pNA at various concentrations ranging from 0.01 to 2 mM, the specific activity of the Tk-SP was measured at 20 and 80° C. The measurement procedure was the same as that of Example 2. The obtained values were applied to the Michaelis-Menten equation for calculation of the rate parameters. For comparison, the specific activity of a known thermostable protease, Tk-subtilisin (see nonpatent literature 1) was similarly measured and then the rate parameters thereof were calculated.

[2] = substrate: C[C@H](NC(=O)CCC(=O)O)C(=O)N[C@@H](C)C(=O)N1CCC[C@H]1C(=O)N[C@@H](Cc1ccccc1)C(=O)Nc1ccc([N+](=O)[O-])cc1; test: Rate parameters of Tk-subtilisin with Suc-AAPF-pNA (Michaelis-Menten), comparison; type: biochemical, Thermococcus kodakaraensis KOD1; details: substrate 0.01 to 2 mM
Description: as §1, §2

Protein	Km ([1]; other: 20° C., 20.0 °C)	Vmax ([1]; other: 20° C., 20.0 °C)	kcat ([1]; other: 20° C., 20.0 °C)	Km ([1]; other: 80° C., 80.0 °C)	Vmax ([1]; other: 80° C., 80.0 °C)	kcat ([1]; other: 80° C., 80.0 °C)	Km ([2]; other: 20° C., 20.0 °C)	Vmax ([2]; other: 20° C., 20.0 °C)	kcat ([2]; other: 20° C., 20.0 °C)	Km ([2]; other: 80° C., 80.0 °C)	Vmax ([2]; other: 80° C., 80.0 °C)	kcat ([2]; other: 80° C., 80.0 °C)
B1	117 µM	2.312 U/mg	1.704 S^−1	416 µM	34.84 U/mg	25.668 S^−1						
B2							4000 µM	38.00 U/mg	26.00 S^−1	8000 µM	420.00 U/mg	290.00 S^−1
